Experimental findings from US20250333523A1 (Alector, published 2025) are described below.

Changes are numbered by the printed parent chain. Like-named read-outs stand apart in the source and are kept apart here.

Test [1] deals with T1, Avi/His-HuIL18BPa (recombinant human IL-18BP isoform A with Avi and poly-His tags) (human, biotinylated with BirA on the Avi tag in some assays).
T1 construct: also called human IL-18BP-Avi-His
T1 chain: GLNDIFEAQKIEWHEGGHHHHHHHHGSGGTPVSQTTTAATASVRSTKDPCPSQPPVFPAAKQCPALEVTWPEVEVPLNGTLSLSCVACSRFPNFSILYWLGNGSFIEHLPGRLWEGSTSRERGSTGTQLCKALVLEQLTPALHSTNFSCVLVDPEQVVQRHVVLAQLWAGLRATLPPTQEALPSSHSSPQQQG
Kind of test: SPR Biacore T200, IgG captured on Protein A/G.

Test [2] addresses T2, His/Avi-CynoIL18BP (recombinant cynomolgus IL-18BP with His and Avi tags) (cynomolgus monkey).
T2 construct: also called cynomolgus IL-18BP-Avi-His
T2 chain: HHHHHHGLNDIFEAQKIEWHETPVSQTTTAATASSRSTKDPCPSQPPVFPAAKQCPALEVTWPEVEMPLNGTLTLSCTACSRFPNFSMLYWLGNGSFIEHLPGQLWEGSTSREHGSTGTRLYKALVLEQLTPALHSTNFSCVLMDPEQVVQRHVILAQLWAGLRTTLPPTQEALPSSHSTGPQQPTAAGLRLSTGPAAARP
Kind of test: SPR Biacore T200, IgG captured on Protein A/G.

Test [3] addresses T3, Avi/HisMsIL18BPd (recombinant mouse IL-18BP with Avi and poly-His tags) (mouse, biotinylated with BirA on the Avi tag in some assays).
T3 chain: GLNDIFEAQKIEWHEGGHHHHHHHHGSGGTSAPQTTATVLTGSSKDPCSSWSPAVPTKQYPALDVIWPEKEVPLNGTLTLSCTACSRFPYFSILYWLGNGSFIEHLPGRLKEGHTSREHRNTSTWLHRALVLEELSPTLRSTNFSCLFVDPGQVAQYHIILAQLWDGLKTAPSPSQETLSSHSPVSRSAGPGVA
Kind of test: cell-based or functional assay.

The target of test [4] is T1, Avi/His-HuIL18BPa (recombinant human …). Kind of test: cell-based or functional assay.
Test [5] has as its target T3, Avi/HisMsIL18BPd (recombinant mouse …). Kind of test: cell-based or functional assay.
Test [6] concerns the target T1, Avi/His-HuIL18BPa (recombinant human …). Kind of test: cell-based or functional assay.
For test [7] the target is unchanged. Description: SPR Carterra LSA, IgG immobilized.
For test [8], the target named is T4, mouse IL-18BPd-human IgG Fc (R&D Systems, Cat. #122-BP-100) (mouse; human, UniProt Q9Z0M9 29-193).
T4 construct: Bought; also called mouse IL-18BPd-Fc Chimera
T4 sequence (looked up): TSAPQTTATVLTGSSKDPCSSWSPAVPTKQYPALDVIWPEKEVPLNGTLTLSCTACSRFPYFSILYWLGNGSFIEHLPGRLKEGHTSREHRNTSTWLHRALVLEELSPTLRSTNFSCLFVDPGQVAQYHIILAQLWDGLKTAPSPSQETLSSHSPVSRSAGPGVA
Description: blocking ELISA, competitor mouse IL-18. For orientation: ELISA stands for enzyme-linked immunosorbent assay.

For test [9], the target named is T1, Avi/His-HuIL18BPa (recombinant human …). Description: blocking ELISA, competitor human IL-18.
For test [10], the target named is T3, Avi/HisMsIL18BPd (recombinant mouse …). Kind of test: ELISA, coated IL-18BP.
The target of test [11] is T1, Avi/His-HuIL18BPa (recombinant human …). Description: ELISA, coated IL-18BP.
The target in test [12] is T2, His/Avi-CynoIL18BP (recombinant …). Description: blocking ELISA, competitor rhesus IL-18.
Test [13] has the same target. Description: ELISA, coated IL-18BP.

B1: anti-IL-18BP antibody variant BP-04.07 (antibody, V domains shown)
VH: QVQLVQSGAEVKKPGASVKVSCKASGYTFTDYDMHWVRQAPGQGLEWMGIISTYYGVVSYAQKKQGRVTMTRDKSTSTVYMELSSLRSEDTAVYYCARSGTYNYGTRESHALDYWGQGTLVTVSS
VL: DIQMTQSPSSVSASVGDRVTITCRASDNVYSNLAWYQQKPGKAPKLLIYGAISLADGVPSRFSGSGSGTDFTLTISSLQPEDFATYYCQHFWGNPYTFGQGTKLEIK
For the molecule B1, in [1], the Kd was 1.9 nM, the koff was determined as 0.00068 s⁻¹ and the kon worked out at 350000 M⁻¹ s⁻¹. Also, in test [2], the Kd came to 2.4 nM, the koff was found to be 0.00076 s⁻¹ and the kon is 320000 M⁻¹ s⁻¹. Further, the “EC50 of IFNγ release, mouse splenocytes” value in [3] stood at 51.9 nM. Moreover, the “EC50 of IFNγ release, human PBMCs” value in [4] was determined as 4.3 nM.

B2: anti-IL-18BP antibody variant BP-04.15 (antibody, V domains shown)
VH: B1 VH with V57D, K64F, A111P
VL: B1 VL
In the case of B2, in [1], the Kd worked out at 12 nM, the koff came to 0.0028 s⁻¹ and the on-rate constant (kon) is 240000 M⁻¹ s⁻¹. In [2], the Kd was determined as 20 nM, the dissociation rate constant (koff) is 0.004 s⁻¹ and the kon worked out at 200000 M⁻¹ s⁻¹. Besides, the “EC50 of IFNγ release, mouse splenocytes” value in test [3] was 43.1 nM. In addition, in test [4], the “EC50 of IFNγ release, human PBMCs” value is 12.3 nM.

B3: anti-IL-18BP antibody variant BP-04.28 (antibody, V domains shown)
VH: B1 VH with V57D, K64F, N103Y, A111P
VL: B1 VL
For the molecule B3, in [1], the Kd was 4.7 nM, the koff is 0.0019 s⁻¹ and the kon turned out to be 410000 M⁻¹ s⁻¹. Further, in test [2], the Kd was 7.2 nM, the koff came to 0.0023 s⁻¹ and the on-rate constant (kon) stood at 330000 M⁻¹ s⁻¹. For the same molecule, the “EC50 of IFNγ release, mouse splenocytes” value in [3] came out at 134 nM. The “EC50 of IFNγ release, human PBMCs” value in test [4] was determined as 71.2 nM.

B4: anti-IL-18BP antibody variant BP-04.08 (antibody, V domains shown)
VH: B1 VH with I51Y, V57D
VL: B1 VL
In the case of B4, in [1], the Kd stood at 16 nM, the koff worked out at 0.0035 s⁻¹ and the on-rate constant (kon) was determined as 210000 M⁻¹ s⁻¹. In test [2], the Kd turned out to be 56 nM, the dissociation rate constant (koff) was found to be 0.014 s⁻¹ and the kon is 260000 M⁻¹ s⁻¹. Also, in [3], the “EC50 of IFNγ release, mouse splenocytes” value was found to be 94.1 nM. In test [4], the “EC50 of IFNγ release, human PBMCs” value was found to be 174 nM.

B5: anti-IL-18BP antibody variant BP-04.29 (antibody, V domains shown)
VH: B1 VH with V57D, K64F
VL: B1 VL
Take B5: in test [1], the Kd stood at 16 nM, the koff amounted to 0.0062 s⁻¹ and the kon worked out at 390000 M⁻¹ s⁻¹. In test [2], the Kd amounted to 32 nM, the koff stood at 0.011 s⁻¹ and the kon was 340000 M⁻¹ s⁻¹. Further, the “EC50 of IFNγ release, mouse splenocytes” value in test [3] was determined as 45.5 nM. In addition, the “EC50 of IFNγ release, human PBMCs” value in [4] worked out at 3.53 nM.

B6: anti-IL-18BP antibody variant BP-04.09 (antibody, V domains shown)
VH: B1 VH with I51Y, K64F, N103Y, L112F
VL: B1 VL
In the case of B6, in [1], the Kd came out at 0.52 nM, the koff is 0.00028 s⁻¹ and the kon worked out at 530000 M⁻¹ s⁻¹. In [2], the Kd came out at 1.3 nM, the koff worked out at 0.0006 s⁻¹ and the kon is 450000 M⁻¹ s⁻¹. Besides, the “EC50 of IFNγ release, mouse splenocytes” value in test [3] came to 2.04 nM. Also, the “EC50 of IFNγ release, human PBMCs” value in test [4] is 3.74 nM.

B7: anti-IL-18BP antibody variant BP-04.25 (antibody, V domains shown)
VH: B1 VH with I51Y, V57D, K64F
VL: B1 VL
Turning to B7, in [1], the Kd came to 21 nM, the koff amounted to 0.0061 s⁻¹ and the kon is 300000 M⁻¹ s⁻¹. Also, in [2], the Kd was 100 nM, the koff was determined as 0.022 s⁻¹ and the kon amounted to 220000 M⁻¹ s⁻¹. Moreover, the “EC50 of IFNγ release, mouse splenocytes” value in [3] was found to be 28.9 nM. The “EC50 of IFNγ release, human PBMCs” value in test [4] is 5.05 nM.

B8: anti-IL18BP antibody BP-14 (antibody, human IgG1, V domains shown)
VH: QVQLVQSGAEVKKPGASVKVSCKASGYTFTGYYMHWVRQAPGQGLEWMGIINPRGGSTSHAQKFQGRVTMTRDTSTSTVYMELSSLRSEDTAVYYCARGLELHWFDPWGQGTLVTVSS
VL: DIQMTQSPSSLSASVGDRVTITCRASQNIRSWLAWYQQKPGKAPKLLIYAASSLQSGVPSRFSGSGSGTDFTLTISSLQPEDFATYYCQQANSFPYTFGQGTKLEIK
In the case of B8, in test [5], the “EC50 of IFNγ release, mouse splenocytes” value worked out at 2.93 nM and the “Fold change of IFNγ at 10 µg/ml vs baseline, mouse splenocytes” value was determined as 3.49 fold. In [6], the “EC50 of IFNγ release, human PBMC” value was found to be 3.47 nM and the “Fold change of IFNγ at 10 µg/ml vs baseline, human PBMC” value worked out at 8.86 fold. Further, the Kd in [7] came out at 3.2 nM. Besides, in test [8], the “blocking ELISA signal normalized to isotype control (=1)” value (from here on “blocking ELISA signal normalized”) is 0.202 ratio to isotype control. In test [9], the “blocking ELISA signal normalized” value was 0.069 ratio to isotype control. Further, the “ELISA binding ratio (fold-change over background)” value in test [10] worked out at 45.1 fold over background. Moreover, the “ELISA binding ratio (fold-change over background)” value in test [11] is 36.3 fold over background.

B9: anti-IL18BP antibody BP-07 (antibody, human IgG1, V domains shown)
VH: EVQLQQSGPELVKPGASVKISCRASGFTITDYNMDWVRQSHGKSLEWIGNINLNNGGSIYNQKFKGKATLTIDKSSSTAYMELRSLTSEDTAVYYCARSDTTVVASRYYAMDYWGQGTSVTVSS
VL: DIVLTQSPASLAMSLGKRATISCRASESVSIIGTNLIHWYQQKPGQPPKLLIYHASNLETGVPVRFSGSGSRTDFTLTIDPVEEDDVAIYYCLQSRKIPPTFGGGTKLEIK
Consider B9, for which the results for the “blocking ELISA signal normalized” value in test [12], in test [8] and in [9] were 0.999 ratio to isotype control, 0.156 ratio to isotype control and 0.147 ratio to isotype control, respectively. The “EC50 of IFNγ release, mouse splenocytes” value in test [5] came to 8.16 nM. The “Fold change of IFNγ at 10 µg/ml vs baseline, mouse splenocytes” value in test [5] was 2.78 fold. Besides, the “EC50 of IFNγ release, human PBMC” value in test [6] is 1.66 nM. In addition, the “Fold change of IFNγ at 10 µg/ml vs baseline, human PBMC” value in test [6] stood at 16.6 fold. Also, the Kd in [7] worked out at 2.7 nM. The “ELISA binding ratio (fold-change over background)” value amounted to 39.3 fold over background in [10], 38.5 fold over background in test [11] and 31.1 fold over background in [13].

One may read the Kd as a measure of binding affinity in units of concentration. As usually defined, the koff is the rate constant with which the complex falls apart. As usually defined, the kon is a measure of how fast the partners come together.
